Literature values in patent publication US7202065B2, “Stabilized liquid preparation of the protease which activates blood coagulation factor VII, or of its proenzyme” (ZLB Behring GmbH, priority 2001, dated 2007).

Details: solution containing 20 mM Tris, 0.15 mM NaCI at a pH of 7.5

## proenzyme: proenzyme, which is the non-activated form of the protease which activates blood coagulation factor VII
  loss of activity after enrichment or isolation: rapid loss of activity
